Results as given in publication PMC10502657 (Advanced Science, 2023).

What was measured:
[1] = biological target: T1, Flag–p53 (UniProt P04637 1-393); experiment: pull-down; GST-fusion proteins immobilised on glutathione beads incubated with purified Flag-tagged proteins in 50 mM Tris-HCl pH 7.4, 150 mM NaCl, 0.5% Triton X-100 for 4 h at 4 °C; western blot; settings: both partners purified
T1 construct: p53; also called Flag-tagged p53; source: HEK293T, transfected, in lysate

[2] = biological target: T2, Flag–USP7 (UniProt Q93009 1-1102); experiment: as above; settings: both partners purified
T2 construct: ubiquitin-specific protease 7 (USP7); also called Flag-tagged USP7; source: HEK293T, transfected, in lysate
T2 sequence (Q93009 whole entry): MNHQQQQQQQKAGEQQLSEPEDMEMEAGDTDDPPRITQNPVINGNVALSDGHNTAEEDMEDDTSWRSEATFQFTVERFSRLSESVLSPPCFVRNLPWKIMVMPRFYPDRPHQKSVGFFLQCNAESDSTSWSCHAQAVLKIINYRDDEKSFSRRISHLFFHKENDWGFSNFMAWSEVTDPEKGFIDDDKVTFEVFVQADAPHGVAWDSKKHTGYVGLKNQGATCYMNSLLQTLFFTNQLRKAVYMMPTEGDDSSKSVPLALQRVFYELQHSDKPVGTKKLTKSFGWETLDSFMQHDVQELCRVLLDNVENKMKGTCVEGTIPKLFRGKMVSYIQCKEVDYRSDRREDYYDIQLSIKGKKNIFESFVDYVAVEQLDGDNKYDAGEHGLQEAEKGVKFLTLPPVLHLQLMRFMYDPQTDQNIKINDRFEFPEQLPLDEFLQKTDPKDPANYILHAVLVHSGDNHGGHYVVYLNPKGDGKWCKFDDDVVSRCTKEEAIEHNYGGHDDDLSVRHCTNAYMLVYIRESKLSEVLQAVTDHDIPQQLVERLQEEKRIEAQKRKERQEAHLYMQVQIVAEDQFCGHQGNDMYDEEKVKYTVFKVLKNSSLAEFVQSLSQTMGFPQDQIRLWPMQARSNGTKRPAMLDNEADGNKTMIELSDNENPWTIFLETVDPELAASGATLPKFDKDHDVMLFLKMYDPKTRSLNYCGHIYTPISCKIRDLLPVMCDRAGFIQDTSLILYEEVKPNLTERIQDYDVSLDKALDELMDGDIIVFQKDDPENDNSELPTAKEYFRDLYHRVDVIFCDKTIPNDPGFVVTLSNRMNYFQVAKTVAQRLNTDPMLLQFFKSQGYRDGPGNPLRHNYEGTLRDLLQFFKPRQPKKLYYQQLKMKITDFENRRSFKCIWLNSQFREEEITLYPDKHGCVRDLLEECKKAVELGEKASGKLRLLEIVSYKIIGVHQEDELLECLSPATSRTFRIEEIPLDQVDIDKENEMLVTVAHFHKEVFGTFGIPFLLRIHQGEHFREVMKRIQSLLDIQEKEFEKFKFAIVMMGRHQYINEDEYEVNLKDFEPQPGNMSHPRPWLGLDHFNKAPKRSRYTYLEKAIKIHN

T1 sequence (P04637 whole entry, the tested form may be a part): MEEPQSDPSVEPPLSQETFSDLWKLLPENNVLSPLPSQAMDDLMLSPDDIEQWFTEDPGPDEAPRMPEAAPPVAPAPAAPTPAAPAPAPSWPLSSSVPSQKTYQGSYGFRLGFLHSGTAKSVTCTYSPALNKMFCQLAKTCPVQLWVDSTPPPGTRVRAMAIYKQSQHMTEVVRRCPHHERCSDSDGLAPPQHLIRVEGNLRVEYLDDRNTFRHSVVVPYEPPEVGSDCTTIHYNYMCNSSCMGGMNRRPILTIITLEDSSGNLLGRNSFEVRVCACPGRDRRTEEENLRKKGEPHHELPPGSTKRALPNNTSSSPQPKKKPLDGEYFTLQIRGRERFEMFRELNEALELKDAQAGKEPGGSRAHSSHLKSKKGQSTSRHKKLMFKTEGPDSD

B1: GST–MLF2 (natural protein, UniProt Q15773 1-248, looked up)
chain: MFRFMRDVEPEDPMFLMDPFAIHRQHMSRMLSGGFGYSPFLSITDGNMPGTRPASRRMQQAGAVSPFGMLGMSGGFMDMFGMMNDMIGNMEHMTAGGNCQTFSSSTVISYSNTGDGAPKVYQETSEMRSAPGGIRETRRTVRDSDSGLEQMSIGHHIRDRAHILQRSRNHRTGDQEERQDYINLDESEAAAFDDEWRRETSRFRQQRPLEFRRLESSGAGGRRAEGPPRLAIQGPEDSPSRQSRRYDW
notes: myeloid leukemia factor 2 (MLF2); also called glutathione-S-transferase (GST) tagged MLF2
binding result [1]: binds | binding result [2]: binds
